Reference: the supplement of paper PMC9170038

Tests used:
[1] = system: MS2 coat protein; assay: apparent KD of MS2 coat protein, switch ON state; designed switch direction (-1 OFF switch, 1 ON switch): 1; higher = weaker reporter binding; details: FMN input: 0 or 200 uM; Eterna round: R93 (includes R88 designs)
In short: (§1)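 Designed RNA switches were transcribed on-chip from Illumina sequencing clusters. SNAP-549-labelled MS2 coat protein was titrated onto them in twofold steps from 0.7 or 1.5 nM to 3 µM in 100 mM Tris-HCl pH 7.5, 80 mM KCl, 4 mM MgCl2, either without or with constant ligand. Apparent KD reflects the per-design median of normalised cluster binding-curve fits.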

[2] = system: MS2 coat protein; assay: apparent KD of MS2 coat protein, switch OFF state (with FMN for OFF switches, without FMN for ON switches); designed switch direction (-1 OFF switch, 1 ON switch): 1; higher = weaker reporter binding; details: FMN input: 0 or 200 uM; Eterna round: R93 (includes R88 designs)
In short: as §1

## CGAAAGGAGAGAGAGGAUAUCCAAAGGAAAACAUGAGGAUCACCCAUGUAGAAGGUAGGAGAUUGGGAGAAGGCUCAAGAGAGAA [salish99-ss2-146]
[1]
  apparent KD of MS2 coat protein: 19.1 nM
[2]
  apparent KD of MS2 coat protein: 25 nM

## AGGAAACAUGAGGAUCACCCAUGUAAAAAUAUGGGAGGAUAUUGGAAUAAAAUAAAGAACCGAGAAGGCCUAAAAA [59%, Flamingo, 6]
[1]
  apparent KD of MS2 coat protein: 32.3 nM
[2]
  apparent KD of MS2 coat protein: 219 nM

## AUUCCAAAUAGUCAGGAUAUCAGGAGUAAGACAUGAGGAUCACCCAUGUACUUAGUAAAAGUAACUGAGAAGGGACAGGGUGUAA [JR_SS002_Sub406]
[1]
  apparent KD of MS2 coat protein: 30 nM
[2]
  apparent KD of MS2 coat protein: 24.2 nM

## AACCAACAUGAGGAUCACCCAUGUCAACCCAAGGCAGGAUAUGCGAGAAUAACAAUGGGAGCAGAAGGGCCGACCU [ss1-3]
[1]
  apparent KD of MS2 coat protein: 40 nM
[2]
  apparent KD of MS2 coat protein: 53.4 nM

## GAAAAACAUGAGGAUCACCCAUGUAAGAUAAACACAGGAUAUGCGAAAAUAAACAAAGAAGCAGAAGGGUGAAGAA [Mat - Same State 1 - Tesla mod - 72]
[1]
  apparent KD of MS2 coat protein: 23 nM
[2]
  apparent KD of MS2 coat protein: 80.3 nM

## AAAAUAAAAAGGUAGGAUAUGGGUAAGUCUACAUGAGGAUCACCCAUGUAAUAAAAAGAAAAAAACCAGAAGGACCAAAAUAAAA [72%, More Wateronthemoon, 11]
[1]
  apparent KD of MS2 coat protein: 20.2 nM
[2]
  apparent KD of MS2 coat protein: 50.1 nM

## AGGAAACAUGAGGAUCACCCAUGUAAGAUAAACUUAGGAUAUGCGAAAAGAAACAAAGAAGCAGAAGGAGGGAGAA [75%, Ex5 sub 1, 2]
[1]
  apparent KD of MS2 coat protein: 16.5 nM
[2]
  apparent KD of MS2 coat protein: 33 nM

## AACAGACAUGAGGAUCACCCAUGUAGAAUUAUGGGAGGAUAUACAAAGACGAGAGUCAGAGUAGAAGGCCUAGGAC [salish99-ss1-163]
[1]
  apparent KD of MS2 coat protein: 20 nM
[2]
  apparent KD of MS2 coat protein: 71.2 nM

## UGGAGACAUGAGGAUCACCCAUGUGAGAAGAGGCGAGGAUAUCGAAAGAAAGAAGAGAAACGAGAAGGCGCGAGAA [salish99-SS1-033]
[1]
  apparent KD of MS2 coat protein: 13 nM
[2]
  apparent KD of MS2 coat protein: 36.7 nM

## AGAAAACAUGAGGAUCACCCAUGUAGAAAUAUGGGAGGAUAUACAUAGACGAAAGUCAUAGUAGAAGGCCUAAAGA [Mat - Same State 1 - Meechl mod - D128]
[1]
  apparent KD of MS2 coat protein: 15 nM
[2]
  apparent KD of MS2 coat protein: 49.4 nM

## UAUAGACAUGAGGAUCACCCAUGUAGAAUUAUGGGAGGAUAUACAAAGACGAGAGUCAGAGUAGAAGGCCUAGGAC [salish99-ss1-155]
[1]
  apparent KD of MS2 coat protein: 22.6 nM
[2]
  apparent KD of MS2 coat protein: 49.6 nM

## AACUAACAUGAGGAUCACCCAUGUAUUCAAACAUGAGGAUAUAUAACACAUCAUCGACAGAUAGAAGGCAUAAAUA [JR_SS001_Sub1205]
[1]
  apparent KD of MS2 coat protein: 89.6 nM
[2]
  apparent KD of MS2 coat protein: 78.5 nM

## GGAAGACAUGAGGAUCACCCAUGUGGGAUUAUGGGAGGAUAUACAAAGACGAGAGUCAGAGUAGAAGGCCUAGGAC [salish99-ss1-123(!)]
[1]
  apparent KD of MS2 coat protein: 31.1 nM
[2]
  apparent KD of MS2 coat protein: 61.4 nM

## AAAGACGUGGUGUAGGAUAUACUAAUAGUCACAUGAGGAUCACCCAUGUUCAUAUAUAUGAACGAGUAGAAGGACGACGAAAAAA [SameState2 Malc#2]
[1]
  apparent KD of MS2 coat protein: 70.4 nM
[2]
  apparent KD of MS2 coat protein: 95.8 nM

## AAUAAACAUGAGGAUCACCCAUGUAAAUGGGUACAAGGAUAUGCGAAAAGAAACAAAGAAGCAGAAGGUGUAAAGA [Ex5 sub 2]
[1]
  apparent KD of MS2 coat protein: 347 nM
[2]
  apparent KD of MS2 coat protein: 432 nM

## CGGAGACAUGAGGAUCACCCAUGUGAGAAGAGGCGAGGAUAUCGAAAGAAAGAAGAGAAACGAGAAGGCGCGAGAC [salish99-SS1-077]
[1]
  apparent KD of MS2 coat protein: 17.7 nM
[2]
  apparent KD of MS2 coat protein: 26.7 nM

## AAAAGACAUGAGGAUCACCCAUGUAAAAACGUAGGAGGAUAUGUCGUGAAAAAAGACUUGACAGAAGGCCUGUGUC [SS1 - 35]
[1]
  apparent KD of MS2 coat protein: 25.9 nM
[2]
  apparent KD of MS2 coat protein: 39 nM

## AAAUAAAUAAGAGAGGAUAUGUCAGAGAAAACAUGAGGAUCACCCAUGUAAUAAUAAAAAGGGUGACAGAAGGCUCAAAACAAAC [Hyphema modified]
[1]
  apparent KD of MS2 coat protein: 32.3 nM
[2]
  apparent KD of MS2 coat protein: 58.5 nM

## UGGAGACAUGAGGAUCACCCAUGUGAGAAGAGGCGAGGAUAUCGAAAGAAAGAAGAGAAACGAGAAGGCGCGAGUC [salish99-SS1-046]
[1]
  apparent KD of MS2 coat protein: 28.3 nM
[2]
  apparent KD of MS2 coat protein: 41 nM

## UGGAGACAUGAGGAUCACCCAUGUGAGAAGAGGCGAGGAUAUCGAAAGAAAGAAGAGAAACGAGAAGGCGCGAGAG [salish99-SS1-041]
[1]
  apparent KD of MS2 coat protein: 42.7 nM
[2]
  apparent KD of MS2 coat protein: 51.2 nM

## AGAAUAAAAAGAGAGGAUAUCCAUAAGAAAACAUGAGGAUCACCCAUGUGAAAGAUAAUAAAAUGGGAGAAGGCUCAAAAUAAGA [Topaz 45]
[1]
  apparent KD of MS2 coat protein: 21 nM
[2]
  apparent KD of MS2 coat protein: 20.2 nM

## GGAGCCGACACUGAGGAUAUUCAUAUUAAAACAUGAGGAUCACCCAUGUAGGCCAGAAGGCCUUGGGAGAAGGCAGGCCGGCUCG [Inxebi]
[1]
  apparent KD of MS2 coat protein: 19.3 nM
[2]
  apparent KD of MS2 coat protein: 256 nM
